Assay results from patent publication US20070243589A1 (Pfizer, published 2007).

Legend:
[1] = target: T1, human IL-22 (human, UniProt Q9GZX6 34-179); test: SPR (Biacore), antibody amine-coupled to CM5 chip, human IL-22 as analyte, 1:1 model
T1 construct: Construct used in SPR, ELISA and cell assays is not described; also called huIL-22
T1 sequence: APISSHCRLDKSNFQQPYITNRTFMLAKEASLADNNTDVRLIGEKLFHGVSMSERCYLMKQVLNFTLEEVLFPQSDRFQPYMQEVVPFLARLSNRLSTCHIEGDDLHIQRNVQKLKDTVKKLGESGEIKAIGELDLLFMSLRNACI
Experimental: To prepare the biosensor surface for the human monoclonal antibodies, either human monoclonal antibody (356A11 or 368D04) or control antibody PD-1 (#17) were immobilized onto a research-grade carboxymethyl dextran chip (CM5) using standard amine coupling. The surface was activated with EDC/NHS. The capturing antibodies were injected at a concentration of 1 μg/ml in sodium acetate buffer (pH 5.5). Remaining activated groups were blocked with 1.0 M ethanolamine (pH 8.0). The first flow cell was used as a reference surface to correct for bulk refractive index, matrix effects, and non-specific binding. The second, third, and fourth flow cells were coated with the capturing molecule.
The kinetic data were analyzed using BIAevaluation software 3.0.2 applied to a 1:1 model. The apparent dissociation (Kd) and association (Kₐ) rate constants were calculated from the appropriate regions of the sensorgrams using a global analysis. The affinity constants of the interaction between antibody and analyte were calculated from the kinetic rate constants by the following formulae: KD=Kd/Kₐ, where KD is the dissociation constant and KA=Kₐ/Kd, where KA is the association constant.

[2] = target: T2, murine IL-22 (murine, UniProt Q9JJY9 34-179); test: cell-based or functional assay
T2 sequence: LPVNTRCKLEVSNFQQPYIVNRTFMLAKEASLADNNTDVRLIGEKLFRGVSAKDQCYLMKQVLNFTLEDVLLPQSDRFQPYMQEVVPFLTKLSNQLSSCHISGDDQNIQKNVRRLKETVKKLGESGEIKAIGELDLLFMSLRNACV

[3] = target: monkey IL-22 (monkey); test: cell-based or functional assay
[4] = target: T1, human IL-22; test: cell-based or functional assay
[5] = target: T3, rat IL-22 (rat, UniProt G3V6X6 34-178); test: cell-based or functional assay
T3 sequence: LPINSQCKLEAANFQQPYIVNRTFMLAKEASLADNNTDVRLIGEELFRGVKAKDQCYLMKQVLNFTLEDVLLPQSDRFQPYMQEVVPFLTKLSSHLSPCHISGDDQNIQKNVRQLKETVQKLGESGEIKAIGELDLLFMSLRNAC

[6] = target: T4, human IL-20 (human, UniProt Q9NYY1 25-176); test: BIA (surface plasmon resonance)
T4 sequence (looked up): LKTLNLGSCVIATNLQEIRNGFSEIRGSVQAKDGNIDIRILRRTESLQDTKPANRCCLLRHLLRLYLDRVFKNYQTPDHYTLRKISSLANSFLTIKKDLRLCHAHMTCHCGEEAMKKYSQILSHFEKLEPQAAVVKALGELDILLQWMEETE

[7] = target: T5, human IFN-ω (human, UniProt P05000 24-195); test: BIA (surface plasmon resonance)
T5 sequence (looked up): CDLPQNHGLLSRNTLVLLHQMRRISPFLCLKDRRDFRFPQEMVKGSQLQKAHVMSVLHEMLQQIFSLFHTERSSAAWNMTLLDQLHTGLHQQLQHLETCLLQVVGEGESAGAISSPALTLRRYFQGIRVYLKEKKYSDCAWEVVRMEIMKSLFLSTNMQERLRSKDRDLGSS

[8] = target: T6, human IL-28A (human, UniProt Q8IZJ0 26-200); test: BIA (surface plasmon resonance)
T6 sequence (looked up): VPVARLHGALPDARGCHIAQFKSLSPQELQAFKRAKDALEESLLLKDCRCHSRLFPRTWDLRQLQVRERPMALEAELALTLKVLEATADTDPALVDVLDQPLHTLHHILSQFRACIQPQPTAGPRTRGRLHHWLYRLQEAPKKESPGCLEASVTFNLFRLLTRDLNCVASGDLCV

[9] = target: human IL-29 (human, UniProt Q8IU54 20-200); test: BIA (surface plasmon resonance)
[10] = target: human IL-10 (human, UniProt P22301 19-178); test: BIA (surface plasmon resonance)
[11] = target: T7, human IL-24 (human, UniProt Q13007 52-206, limits assumed); test: BIA (surface plasmon resonance)
T7 sequence (looked up): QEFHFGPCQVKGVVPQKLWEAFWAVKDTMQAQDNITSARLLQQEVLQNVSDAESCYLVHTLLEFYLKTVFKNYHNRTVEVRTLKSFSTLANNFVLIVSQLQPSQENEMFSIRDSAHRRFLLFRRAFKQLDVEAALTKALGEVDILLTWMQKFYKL

[12] = target: T8, human IL-19 (human, UniProt Q9UHD0 25-177); test: BIA (surface plasmon resonance)
T8 sequence (looked up): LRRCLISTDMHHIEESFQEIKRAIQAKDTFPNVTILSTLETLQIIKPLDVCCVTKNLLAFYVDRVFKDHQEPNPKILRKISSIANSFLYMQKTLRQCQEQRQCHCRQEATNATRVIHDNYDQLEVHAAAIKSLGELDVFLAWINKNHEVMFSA

[13] = target: T2, murine IL-22; test: cell-based or functional assay; remark: listed apart in the source
[14] = target: monkey IL-22 (monkey); test: cell-based or functional assay; remark: listed apart in the source
[15] = target: T1, human IL-22; test: cell-based or functional assay; remark: listed apart in the source
[16] = target: T3, rat IL-22; test: cell-based or functional assay; remark: listed apart in the source

Sequence of human IL-10 (P22301 19-178 limits assumed): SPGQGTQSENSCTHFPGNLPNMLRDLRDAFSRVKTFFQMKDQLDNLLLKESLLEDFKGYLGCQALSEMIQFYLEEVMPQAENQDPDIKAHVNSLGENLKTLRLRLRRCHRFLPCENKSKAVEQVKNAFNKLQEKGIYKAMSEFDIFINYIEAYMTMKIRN
Sequence of human IL-29 (Q8IU54 20-200 limits assumed): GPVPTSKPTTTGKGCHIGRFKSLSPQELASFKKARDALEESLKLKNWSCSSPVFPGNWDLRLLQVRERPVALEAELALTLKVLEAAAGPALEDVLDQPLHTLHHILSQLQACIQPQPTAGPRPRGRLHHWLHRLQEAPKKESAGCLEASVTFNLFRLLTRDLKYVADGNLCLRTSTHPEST

B1: 356A11, human monoclonal anti-IL-22 antibody as used in Examples 10 and 11 (antibody, V domains shown)
VH: QVQLVQSGAEVKKPGASVKVSCKASGYTFTNYYMHWVRQAPGQGLEWVGWINPYTGSAFYAQKFRGRVTMTRDTSISTAYMELSRLRSDDTAVYYCAREPEKFDSDDSDVWGRGTLVTVSS
VL: QAVLTQPPSVSGAPGQRVTISCTGSSSNIGAGYGVHWYQQLPGTAPKLLIYGDSNRPSGVPDRFSGSKSGTSASLAITGLQAEDEADYYCQSYDNSLSGYVFGGGTQLTVLG
Q: Which Ka [1] does the source give for B1 here?
A: 1.85e+10 M⁻¹

Q: What about the Kd [1] of the same binder?
A: 0.054 nM

Q: What about the koff [1] of the same binder?
A: 4.27e-06 s⁻¹

Q: And the kon [1]?
A: 79100 M⁻¹ s⁻¹

Q: What about the “IC50 in GROa cell based assay” value [2] of the same binder?
A: 0.144 nM

Q: What about the “IC50 in GROa cell based assay” value [3] of the same binder?
A: 0.0896 nM

Q: And the “IC50 in GROa cell based assay” value [4]?
A: 0.124 nM

Q: What about the “IC50 in GROa cell based assay” value [5] of the same binder?
A: 0.211 nM

Q: Does B1 bind [6]?
A: no binding

Q: Does B1 bind [7]?
A: no binding

Q: Does B1 bind [8]?
A: no binding

Q: Does B1 bind [9]?
A: no binding

Q: Does B1 bind [10]?
A: no binding

Q: Does B1 bind [11]?
A: no binding

Q: Does B1 bind [12]?
A: no binding

Q: What about the “IC50 in BaF3 cell based assay” value [13] of the same binder?
A: 0.00253 nM

Q: And the “IC50 in BaF3 cell based assay” value [14]?
A: 0.00258 nM

Q: And the “IC50 in BaF3 cell based assay” value [15]?
A: 0.00357 nM

Q: And the “IC50 in BaF3 cell based assay” value [16]?
A: 0.0107 nM
